We go through 31 molecules from US20200040059A1.

B1: variant PD-L2 IgV-Fc H15Q (Fc fusion, not shown: a dimerising Fc or GST; small tags and cut ends)
chain: FTVTVPKELYIIEQGSNVTLECNFDTGSHVNLGAITASLQKVENDTSPHRERATLLEEQLPLGKASFHIPQVQVRDEGQYQCIIIYGVAWDYKYLTLK
B2: variant PD-L2 IgV-Fc H15Q, Q72H, Q74R, R76G, I86T (Fc fusion, not shown: a dimerising Fc or GST; small tags and cut ends)
chain: B1 chain with Q71H, Q73R, R75G, I85T
B3: variant PD-L2 IgV-Fc N24D (Fc fusion, not shown: a dimerising Fc or GST; small tags and cut ends)
chain: LFTVTVPKELYIIEHGSNVTLECDFDTGSHVNLGAITASLQKVENDTSPHRERATLLEEQLPLGKASFHIPQVQVRDEGQYQCIIIYGVAWDYKYLTLK
B4: variant PD-L2 IgV-Fc E59G, Q82R (Fc fusion, not shown: a dimerising Fc or GST; small tags and cut ends)
chain: B3 chain with D24N, E59G, Q82R
B5: variant PD-L2 IgV-Fc E44D (Fc fusion, not shown: a dimerising Fc or GST; small tags and cut ends)
chain: B3 chain with D24N, E44D
B6: variant PD-L2 IgV-Fc H15Q, K65R (Fc fusion, not shown: a dimerising Fc or GST; small tags and cut ends)
chain: B3 chain with H15Q, D24N, K65R
B7: variant PD-L2 IgV-Fc H15Q, T47A, Q82R (Fc fusion, not shown: a dimerising Fc or GST; small tags and cut ends)
chain: B3 chain with H15Q, D24N, T47A, Q82R
B8: variant PD-L2 IgV-Fc H15Q, S67L, Q72H, R76G, V89D (Fc fusion, not shown: a dimerising Fc or GST; small tags and cut ends)
chain: B3 chain with H15Q, D24N, S67L, Q72H, R76G, V89D
B9: variant PD-L2 IgV-Fc H15Q, S67L, R76G (Fc fusion, not shown: a dimerising Fc or GST; small tags and cut ends)
chain: B3 chain with H15Q, D24N, S67L, R76G
B10: variant PD-L2 IgV-Fc I13V, H15Q, E44D, V89D (Fc fusion, not shown: a dimerising Fc or GST; small tags and cut ends)
chain: B3 chain with I13V, H15Q, D24N, E44D, V89D
B11: variant PD-L2 IgV-Fc H15Q, Q72H, V89D (Fc fusion, not shown: a dimerising Fc or GST; small tags and cut ends)
chain: B3 chain with H15Q, D24N, Q72H, V89D
B12: variant PD-L2 IgV-Fc H15Q, S39I, S67L, V89D (Fc fusion, not shown: a dimerising Fc or GST; small tags and cut ends)
chain: B3 chain with H15Q, D24N, S39I, S67L, V89D
B13: variant PD-L2 IgV-Fc N32D, S67L, V89D (Fc fusion, not shown: a dimerising Fc or GST; small tags and cut ends)
chain: B3 chain with D24N, N32D, S67L, V89D
B14: variant PD-L2 IgV-Fc H15Q, T47A, Q72H, R76G, I86T (Fc fusion, not shown: a dimerising Fc or GST; small tags and cut ends)
chain: B3 chain with H15Q, D24N, T47A, Q72H, R76G, I86T
B15: variant PD-L2 IgV-Fc I13V, E44D, Q82R, V89D (Fc fusion, not shown: a dimerising Fc or GST; small tags and cut ends)
chain: B3 chain with I13V, D24N, E44D, Q82R, V89D
B16: variant PD-L2 IgV-Fc V89D (Fc fusion, not shown: a dimerising Fc or GST; small tags and cut ends)
chain: B3 chain with D24N, V89D
B17: variant PD-L2 IgV-Fc Q82R, V89D (Fc fusion, not shown: a dimerising Fc or GST; small tags and cut ends)
chain: B3 chain with D24N, Q82R, V89D
B18: variant PD-L2 IgV-Fc I13V, S39I, E44D, Q82R, V89D (Fc fusion, not shown: a dimerising Fc or GST; small tags and cut ends)
chain: B3 chain with I13V, D24N, S39I, E44D, Q82R, V89D
B19: variant PD-L2 IgV-Fc S67L, I85F (Fc fusion, not shown: a dimerising Fc or GST; small tags and cut ends)
chain: B3 chain with D24N, S67L, I85F
B20: variant PD-L2 IgV-Fc I13V, H15Q, R76G, I85F (Fc fusion, not shown: a dimerising Fc or GST; small tags and cut ends)
chain: B3 chain with I13V, H15Q, D24N, R76G, I85F
B21: variant PD-L2 IgV-Fc H15Q, S67L, R76G, I85F (Fc fusion, not shown: a dimerising Fc or GST; small tags and cut ends)
chain: B3 chain with H15Q, D24N, S67L, R76G, I85F
B22: variant PD-L2 IgV-Fc I13V, Q72H, R76G, I86T (Fc fusion, not shown: a dimerising Fc or GST; small tags and cut ends)
chain: B3 chain with I13V, D24N, Q72H, R76G, I86T
B23: variant PD-L2 IgV-Fc S67L, V89D (Fc fusion, not shown: a dimerising Fc or GST; small tags and cut ends)
chain: B3 chain with D24N, S67L, V89D
B24: variant PD-L2 IgV-Fc I13V, H15Q, T47A, Q72H, R76G (Fc fusion, not shown: a dimerising Fc or GST; small tags and cut ends)
chain: B3 chain with I13V, H15Q, D24N, T47A, Q72H, R76G
B25: variant PD-L2 IgV-Fc I13V, H15Q, S67L, I86T (Fc fusion, not shown: a dimerising Fc or GST; small tags and cut ends)
chain: B3 chain with I13V, H15Q, D24N, S67L, I86T
B26: variant PD-L2 IgV-Fc S67L, I86T (Fc fusion, not shown: a dimerising Fc or GST; small tags and cut ends)
chain: B3 chain with D24N, S67L, I86T
B27: variant PD-L2 IgV-Fc S39I, V89D (Fc fusion, not shown: a dimerising Fc or GST; small tags and cut ends)
chain: B3 chain with D24N, S39I, V89D
B28: variant PD-L2 IgV-Fc H15Q, E44D, R76G, I85F (Fc fusion, not shown: a dimerising Fc or GST; small tags and cut ends)
chain: B3 chain with H15Q, D24N, E44D, R76G, I85F
B29: variant PD-L2 IgV-Fc H15Q, N32D, S67L, V89D (Fc fusion, not shown: a dimerising Fc or GST; small tags and cut ends)
chain: B3 chain with H15Q, D24N, N32D, S67L, V89D
B30: variant PD-L2 IgV-Fc H15Q, R76G, I85F (SEQ ID NO 1500) (Fc fusion, not shown: a dimerising Fc or GST; small tags and cut ends)
chain: B3 chain with H15Q, D24N, R76G, I85F
B31: variant PD-L2 IgV-Fc H15Q, T47A, Q72H, R76G (Fc fusion, not shown: a dimerising Fc or GST; small tags and cut ends)
chain: B3 chain with H15Q, D24N, T47A, Q72H, R76G

Numbering of substitutions follows the chain as printed. In names and notes the source's numbering stands.

The target in the first assay is PD-1 (Homo sapiens (Human)) (UniProt Q15116). Kind of assay: flow cytometry, Jurkat/PD-1 cells. In general terms: Flow cytometry measures light scatter and fluorescence of single cells or particles in a stream.
PD-1 (Homo sapiens (Human)), sequence (Q15116 21-288 limits assumed): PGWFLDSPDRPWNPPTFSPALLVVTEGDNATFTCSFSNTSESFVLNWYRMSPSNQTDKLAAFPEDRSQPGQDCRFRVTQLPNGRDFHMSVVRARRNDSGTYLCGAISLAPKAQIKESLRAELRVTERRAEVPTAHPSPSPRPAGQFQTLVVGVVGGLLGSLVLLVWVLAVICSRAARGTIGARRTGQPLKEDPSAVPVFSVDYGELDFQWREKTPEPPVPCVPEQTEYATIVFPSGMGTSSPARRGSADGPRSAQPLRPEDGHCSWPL
B1 yielded an MFI at 50 nM of 16000.

B2 showed an MFI at 50 nM of 4050.

For the molecule B3, the MFI at 50 nM came to 1410.

With B4, the MFI at 50 nM came to 12700.

Consider B5, for which the MFI at 50 nM worked out at 2930.

B6 registered an MFI at 50 nM of 13500.

Take B7: the MFI at 50 nM amounted to 65200.

Molecule B8 showed an MFI at 50 nM of 40200.

Take B9: the MFI at 50 nM stood at 47200.

Take B10: the MFI at 50 nM came to 24000.

B11 gave an MFI at 50 nM of 12600.

Consider B12, for which the MFI at 50 nM was 45500.

B13 gave an MFI at 50 nM of 31800.

In turn, B14 gave an MFI at 50 nM of 32100.

B15 returned an MFI at 50 nM of 45200.

With B16, the MFI at 50 nM came to 3360.

Turning to B17, the MFI at 50 nM amounted to 45000.

As for B18, the MFI at 50 nM was 71400.

Molecule B19 registered an MFI at 50 nM of 529.

In turn, B20 came in with an MFI at 50 nM of 4740.

The molecule B21 gave an MFI at 50 nM of 2870.

For the molecule B22, the MFI at 50 nM worked out at 10400.

Regarding B23, the MFI at 50 nM came to 16000.

Consider B24, for which the MFI at 50 nM came out at 73400.

The molecule B25 showed an MFI at 50 nM of 21600.

Take B26: the MFI at 50 nM stood at 6830.

Take B27: the MFI at 50 nM was 26100.

B28: the MFI at 50 nM amounted to 2880.

B29 returned an MFI at 50 nM of 25900.

On to B30, for which the MFI at 50 nM came out at 2940.

B31 gave an MFI at 50 nM of 16500.

Another assay shares this target. Kind of assay: flow cytometry, Jurkat/PD-1 cells; vs wildtype PD-L2 IgV-Fc.
In the case of B1, the Fold increase over wildtype PD-L2 IgV-Fc was 1.63 fold.

The molecule B2 gave a Fold increase over wildtype PD-L2 IgV-Fc of 0.41 fold.

B3 returned a Fold increase over wildtype PD-L2 IgV-Fc of 0.14 fold.

For B4, the Fold increase over wildtype PD-L2 IgV-Fc was 1.29 fold.

The molecule B5 registered a Fold increase over wildtype PD-L2 IgV-Fc of 0.3 fold.

With B6, the Fold increase over wildtype PD-L2 IgV-Fc was found to be 1.37 fold.

In turn, B7 displayed a Fold increase over wildtype PD-L2 IgV-Fc of 6.62 fold.

Regarding B8, the Fold increase over wildtype PD-L2 IgV-Fc amounted to 4.08 fold.

B9 yielded a Fold increase over wildtype PD-L2 IgV-Fc of 4.8 fold.

The molecule B10 came in with a Fold increase over wildtype PD-L2 IgV-Fc of 2.43 fold.

Take B11: the Fold increase over wildtype PD-L2 IgV-Fc was found to be 1.28 fold.

Take B12: the Fold increase over wildtype PD-L2 IgV-Fc was determined as 4.62 fold.

B13 returned a Fold increase over wildtype PD-L2 IgV-Fc of 3.23 fold.

Molecule B14 gave a Fold increase over wildtype PD-L2 IgV-Fc of 3.26 fold.

For the molecule B15, the Fold increase over wildtype PD-L2 IgV-Fc is 4.59 fold.

Molecule B16 returned a Fold increase over wildtype PD-L2 IgV-Fc of 0.34 fold.

Turning to B17, the Fold increase over wildtype PD-L2 IgV-Fc was found to be 4.57 fold.

The molecule B18 registered a Fold increase over wildtype PD-L2 IgV-Fc of 7.26 fold.

For B19, the Fold increase over wildtype PD-L2 IgV-Fc worked out at 0.05 fold.

For B20, the Fold increase over wildtype PD-L2 IgV-Fc came out at 0.48 fold.

The molecule B21 had a Fold increase over wildtype PD-L2 IgV-Fc of 0.29 fold.

Turning to B22, the Fold increase over wildtype PD-L2 IgV-Fc was determined as 1.06 fold.

With B23, the Fold increase over wildtype PD-L2 IgV-Fc amounted to 1.62 fold.

Regarding B24, the Fold increase over wildtype PD-L2 IgV-Fc turned out to be 7.46 fold.

The molecule B25 yielded a Fold increase over wildtype PD-L2 IgV-Fc of 2.19 fold.

In the case of B26, the Fold increase over wildtype PD-L2 IgV-Fc was found to be 0.69 fold.

As for B27, the Fold increase over wildtype PD-L2 IgV-Fc is 2.65 fold.

In turn, B28 had a Fold increase over wildtype PD-L2 IgV-Fc of 0.29 fold.

Consider B29, for which the Fold increase over wildtype PD-L2 IgV-Fc is 2.63 fold.

Regarding B30, the Fold increase over wildtype PD-L2 IgV-Fc turned out to be 0.3 fold.

As to B31, the Fold increase over wildtype PD-L2 IgV-Fc is 1.68 fold.
